{"source": "IntAct's records for PubMed 17934474", "data": [{"biological_target": "brr2_yeast BRR2 (UniProt P32639)", "sequence (P32639 whole entry)": "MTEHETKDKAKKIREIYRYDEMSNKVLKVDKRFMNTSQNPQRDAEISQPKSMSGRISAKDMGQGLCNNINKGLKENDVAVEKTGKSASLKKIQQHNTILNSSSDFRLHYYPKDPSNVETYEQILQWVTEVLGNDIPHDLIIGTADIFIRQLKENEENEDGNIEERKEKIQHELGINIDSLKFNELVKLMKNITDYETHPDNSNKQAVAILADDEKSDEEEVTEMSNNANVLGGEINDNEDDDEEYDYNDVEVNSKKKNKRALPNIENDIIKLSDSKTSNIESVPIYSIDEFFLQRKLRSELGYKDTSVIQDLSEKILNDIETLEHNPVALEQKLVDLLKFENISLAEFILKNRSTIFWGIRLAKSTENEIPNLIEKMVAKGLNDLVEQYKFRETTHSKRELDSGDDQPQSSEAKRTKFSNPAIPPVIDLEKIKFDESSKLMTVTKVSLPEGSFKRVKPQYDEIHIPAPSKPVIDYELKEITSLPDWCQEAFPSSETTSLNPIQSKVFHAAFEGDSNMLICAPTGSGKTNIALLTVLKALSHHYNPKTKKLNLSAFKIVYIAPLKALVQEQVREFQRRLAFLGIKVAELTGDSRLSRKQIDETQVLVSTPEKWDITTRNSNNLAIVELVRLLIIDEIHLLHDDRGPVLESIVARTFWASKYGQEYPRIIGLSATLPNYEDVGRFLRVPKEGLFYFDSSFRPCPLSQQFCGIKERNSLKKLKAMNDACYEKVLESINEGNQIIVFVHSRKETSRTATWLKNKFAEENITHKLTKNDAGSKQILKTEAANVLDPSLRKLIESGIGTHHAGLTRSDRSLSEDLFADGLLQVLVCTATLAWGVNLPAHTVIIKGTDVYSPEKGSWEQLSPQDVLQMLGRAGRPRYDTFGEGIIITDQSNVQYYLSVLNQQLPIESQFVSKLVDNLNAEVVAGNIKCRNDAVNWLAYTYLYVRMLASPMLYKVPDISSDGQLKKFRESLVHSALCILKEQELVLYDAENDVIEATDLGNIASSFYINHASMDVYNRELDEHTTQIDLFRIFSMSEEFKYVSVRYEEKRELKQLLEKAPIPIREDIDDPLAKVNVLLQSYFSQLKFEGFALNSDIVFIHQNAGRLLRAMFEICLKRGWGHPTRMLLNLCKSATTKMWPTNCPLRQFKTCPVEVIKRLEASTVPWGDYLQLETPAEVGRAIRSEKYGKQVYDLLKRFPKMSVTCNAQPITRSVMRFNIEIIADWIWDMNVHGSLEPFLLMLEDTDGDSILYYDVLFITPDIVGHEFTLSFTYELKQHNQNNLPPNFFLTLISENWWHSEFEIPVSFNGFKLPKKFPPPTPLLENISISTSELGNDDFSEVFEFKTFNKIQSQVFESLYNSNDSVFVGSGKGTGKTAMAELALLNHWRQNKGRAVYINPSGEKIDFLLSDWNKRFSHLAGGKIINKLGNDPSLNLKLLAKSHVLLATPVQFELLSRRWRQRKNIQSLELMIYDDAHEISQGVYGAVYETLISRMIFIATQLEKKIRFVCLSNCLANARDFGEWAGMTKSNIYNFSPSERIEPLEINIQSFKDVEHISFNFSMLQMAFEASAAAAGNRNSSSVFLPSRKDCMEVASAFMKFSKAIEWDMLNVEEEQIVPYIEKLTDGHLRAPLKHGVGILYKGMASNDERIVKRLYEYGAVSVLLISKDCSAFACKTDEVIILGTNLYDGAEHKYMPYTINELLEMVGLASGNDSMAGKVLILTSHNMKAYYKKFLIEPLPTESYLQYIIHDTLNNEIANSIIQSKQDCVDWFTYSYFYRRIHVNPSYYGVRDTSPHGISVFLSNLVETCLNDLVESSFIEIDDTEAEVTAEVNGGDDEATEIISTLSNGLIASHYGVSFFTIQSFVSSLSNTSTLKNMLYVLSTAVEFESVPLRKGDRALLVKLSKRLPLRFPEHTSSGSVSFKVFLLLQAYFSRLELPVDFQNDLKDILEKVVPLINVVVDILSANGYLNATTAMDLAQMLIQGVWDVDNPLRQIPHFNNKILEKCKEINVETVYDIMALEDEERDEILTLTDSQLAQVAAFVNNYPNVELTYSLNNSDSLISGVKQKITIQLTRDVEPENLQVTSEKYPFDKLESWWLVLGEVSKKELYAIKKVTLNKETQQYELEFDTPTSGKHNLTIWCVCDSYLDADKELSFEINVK", "values": [{"substance": "Pre-mRNA-splicing factor 8 (Saccharomyces cerevisiae), P33334 F2382L", "effect of a mutation on the interaction": "decreasing interaction"}, {"substance": "Pre-mRNA-splicing factor 8 (Saccharomyces cerevisiae), P33334 F2392L", "effect of a mutation on the interaction": "disrupting interaction"}, {"substance": "Pre-mRNA-splicing factor 8 (Saccharomyces cerevisiae), P33334 H2387P", "effect of a mutation on the interaction": "disrupting interaction"}, {"substance": "Pre-mRNA-splicing factor 8 (Saccharomyces cerevisiae), P33334 H2387R", "effect of a mutation on the interaction": "disrupting interaction"}, {"substance": "Pre-mRNA-splicing factor 8 (Saccharomyces cerevisiae), P33334 P2379T", "effect of a mutation on the interaction": "decreasing interaction"}, {"substance": "Pre-mRNA-splicing factor 8 (Saccharomyces cerevisiae), P33334 R2388G", "effect of a mutation on the interaction": "disrupting interaction"}, {"substance": "Pre-mRNA-splicing factor 8 (Saccharomyces cerevisiae), P33334 R2388K", "effect of a mutation on the interaction": "disrupting interaction"}]}]}
